Ten molecules from publication PMC2700083, “A covalent peptide inhibitor of RGS4 identified in a focused one-bead, one compound library screen” (BMC Pharmacology, 2009) can be followed below.

Substitutions are numbered along the chain they refer to. Bridges are numbered along the chain shown (N, C = ends).

T1: RGS8 full length, MBP fusion (human, UniProt P57771 1-180, biotin (sites not given))
T1 construct: RGS8, human, full length; source: expressed, purified and labeled as described previously [5]
T1 sequence (looked up): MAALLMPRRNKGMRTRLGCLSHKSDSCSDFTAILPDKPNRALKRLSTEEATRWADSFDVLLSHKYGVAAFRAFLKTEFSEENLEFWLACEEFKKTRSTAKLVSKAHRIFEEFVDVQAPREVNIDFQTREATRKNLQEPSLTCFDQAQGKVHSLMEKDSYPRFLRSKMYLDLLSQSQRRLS

T2: RGS19ΔC11 (amino acids 1–209), MBP fusion (human, UniProt P49795 1-209)
T2 construct: RGS19, human, ΔC11, amino acids 1-209; source: expressed, purified and labeled as described previously [5]
T2 sequence (looked up): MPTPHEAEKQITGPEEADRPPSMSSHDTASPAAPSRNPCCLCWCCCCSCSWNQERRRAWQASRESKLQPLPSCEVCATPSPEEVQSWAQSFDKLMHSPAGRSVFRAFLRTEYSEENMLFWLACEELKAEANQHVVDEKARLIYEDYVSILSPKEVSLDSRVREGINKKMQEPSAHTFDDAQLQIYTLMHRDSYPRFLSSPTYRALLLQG

T3: RGS7 RGS domain (aa: 305–453), MBP fusion (human, UniProt P49802 305-453)
T3 construct: RGS7, human, RGS domain, aa 305-453; source: expressed, purified and labeled as described previously [5]
T3 sequence (looked up): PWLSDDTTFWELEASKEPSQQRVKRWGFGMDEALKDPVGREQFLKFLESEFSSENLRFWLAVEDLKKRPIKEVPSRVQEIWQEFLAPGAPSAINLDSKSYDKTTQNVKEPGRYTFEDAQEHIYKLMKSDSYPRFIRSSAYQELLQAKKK

T4: RGS16 full length, MBP fusion (human, UniProt O15492 1-202)
T4 construct: RGS16, human, full length; source: expressed, purified and labeled as described previously [5]
T4 sequence (looked up): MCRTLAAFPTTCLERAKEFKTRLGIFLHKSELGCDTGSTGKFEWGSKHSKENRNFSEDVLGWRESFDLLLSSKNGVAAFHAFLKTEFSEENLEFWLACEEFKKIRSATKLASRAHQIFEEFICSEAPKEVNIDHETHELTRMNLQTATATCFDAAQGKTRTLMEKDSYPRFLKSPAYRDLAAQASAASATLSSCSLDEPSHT

B1: MBP-RGS4Δ51N C148A (domain or fragment)
chain: not shown
modifications: biotin (sites not given)
notes: RGS4Δ51N; source: expressed, purified and labeled as described previously [5]; not shown: MBP, N-terminal, kept
B2: Peptide 5ad (Ac-YWCKGLCK-NH2, S-S) (peptide)
peptide: Ac-YWCKGLCK-NH2
modifications: disulfide 3-7 (inferred)
notes: hit peptide from the focused OBOC library screen; source: synthetic peptide
B3: Peptide 5nd (Tyr-Trp-c[Cys-Lys-Gly-Leu-Cys]-Lys-NH2, S-S) (peptide)
peptide: H-YWCKGLCK-NH2
modifications: disulfide 3-7
SMILES: CC(C)C[C@@H]1NC(=O)CNC(=O)[C@H](CCCCN)NC(=O)[C@@H](NC(=O)[C@H](Cc2c[nH]c3ccccc23)NC(=O)[C@@H](N)Cc2ccc(O)cc2)CSSC[C@@H](C(=O)N[C@@H](CCCCN)C(N)=O)NC1=O
notes: hit peptide from the focused OBOC library screen; also called peptide 7nd in Roof et al, 2008; hit 5; source: synthetic peptide
B4: Peptide 6ad (Ac-KHCYGFCY-NH2, S-S) (peptide)
peptide: Ac-KHCYGFCY-NH2
modifications: disulfide 3-7 (inferred)
notes: as for B2
B5: Peptide 2nd (GTCFGTCW-NH2, S-S) (peptide)
peptide: H-GTCFGTCW-NH2
modifications: disulfide 3-7 (inferred)
notes: hit peptide from the focused OBOC library screen; also called hit 2; source: synthetic peptide
B6: Peptide 6nd (KHCYGFCY-NH2, S-S) (peptide)
peptide: H-KHCYGFCY-NH2
modifications: disulfide 3-7 (inferred)
notes: hit peptide from the focused OBOC library screen; also called hit 6; peptide 14 in Roof et al 2008; source: synthetic peptide
B7: MBP-RGS4Δ51N, wild type, biotinylated (domain or fragment, UniProt P49799 52-205, looked up)
chain: SQEEVKKWAESLENLINHECGLAAFKAFLKSEYSEENIDFWISCEEYKKIKSPSKLSPKAKKIYNEFISVQATKEVNLDSCTREETSRNMLEPTITCFDEAQKKIFNLMEKDSYRRFLKSRFYLDLTNPSSCGAEKQKGAKSSADCTSLVPQCA
modifications: biotin (sites not given)
notes: RGS4 from which the amphipathic N-terminal helix has been removed (RGS4Δ51N); Rat RGS4 is surmised from the group's earlier work; His6 lies between MBP and RGS4 (MBP-His6-RGS4Δ51N) with a TEV site; also called wild type RGS4-biotin; biotin-RGS4; source: expressed, purified and labeled as described previously [5]; not shown: MBP, N-terminal, kept
B8: MBP-RGS4Δ51N C132A (domain or fragment, UniProt P49799 52-205, looked up)
chain: B7 chain with C81A
modifications: biotin (sites not given)
notes: as for B1
B9: MBP-RGS4Δ51N C71A (domain or fragment, UniProt P49799 52-205, looked up)
chain: B7 chain with C20A
modifications: biotin (sites not given)
notes: as for B1
B10: MBP-RGS4Δ51N C95A (domain or fragment, UniProt P49799 52-205, looked up)
chain: B7 chain with C44A
modifications: biotin (sites not given)
notes: as for B1

Common to all, as to details: both partners purified
Assay [1] deals with T5, Gαo, Alexa Fluor 532-labeled (UniProt P59215 1-354, Alexa Fluor 532 label (sites not given)).
T5 construct: G protein alpha subunit Gαo; Used in the presence of AMF (AlCl3, MgCl2, NaF and GDP) to put it into a transition state-like conformation; source: expressed, purified and labeled as described previously [5]
Put plainly: FCPIA (flow cytometry protein interaction assay, Luminex beads); Gαo affinities for RGS4Δ51N wild type and mutants on beads, with AMF. Background: In flow cytometry, cells or beads pass a laser one at a time.

Assay [2] addresses B7. The experiment in a line: FCPIA (flow cytometry protein interaction assay, Luminex beads); competition at one peptide concentration (50 μM unless the cell says otherwise); 5 nM wild type RGS4-biotin on avidin beads, 25 nM Gαo-Alexa Fluor 532, with AMF (AlCl3, MgCl2, NaF and GDP).
The assay “MBP-RGS4Δ51N C148A” concerns the target B1. The experiment in a line: FCPIA (flow cytometry protein interaction assay, Luminex beads); dose curves of 5nd on RGS4 cysteine mutants (5 nM, or 20 nM for the mutants with no Cys in the domain or the C-terminus) and labeled Gαo; curves constrained to 100% and 0%.
In the assay “MBP-RGS4Δ51N C132A” the target is B8. The assay is described as above.
The target of assay [3] is B7. The description is as above.
The target of the assay “MBP-RGS4Δ51N C95A” is B10. The description is as above.
The assay “MBP-RGS4Δ51N C71A” addresses B9. Described as above.
Assay [4] deals with B7. The experiment in a line: FCPIA (flow cytometry protein interaction assay, Luminex beads); dose response curves for 5nd with different RGS proteins on beads and labeled Gαo; curves constrained to 100% and 0%.
Assay [5] deals with T1, RGS8 full length, MBP fusion. The description is as above.
Assay [6] has as its target T2, RGS19ΔC11 (amino acids 1–209), MBP …. Described as above.
In assay [7] the target is T3, RGS7 RGS domain (aa: 305–453), MBP …. Described as above.
Assay [8] deals with T4, RGS16 full length, MBP fusion. The assay is described as above.

T5 sequence (P59215 whole entry): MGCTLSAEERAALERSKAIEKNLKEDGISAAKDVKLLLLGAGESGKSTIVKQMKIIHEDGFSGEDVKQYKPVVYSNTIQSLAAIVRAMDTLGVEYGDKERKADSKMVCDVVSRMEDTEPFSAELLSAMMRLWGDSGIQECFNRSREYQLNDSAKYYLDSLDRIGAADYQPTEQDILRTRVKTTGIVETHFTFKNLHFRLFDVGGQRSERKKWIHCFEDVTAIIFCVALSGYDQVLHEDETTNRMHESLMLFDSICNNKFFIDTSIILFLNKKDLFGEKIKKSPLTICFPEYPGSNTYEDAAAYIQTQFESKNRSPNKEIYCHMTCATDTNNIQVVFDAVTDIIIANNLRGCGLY

As a reminder, the Kd is the equilibrium constant for the complex coming apart. With B1, the Kd in assay [1] was determined as 0.00684 µM.
For the molecule B2, the “% inhibition of RGS4-Gαo” value in assay [2] is 37%.
The term IC50 denotes the point on the concentration scale where inhibition reaches its midpoint. With B3, the logIC50 with MBP-RGS4Δ51N C148A is -4.27 log M; with MBP-RGS4Δ51N C132A it was -3.86 log M; in assay [3] it was -4.36 log M; with MBP-RGS4Δ51N C95A, -4.71 log M; with MBP-RGS4Δ51N C71A it was -4.34 log M; in [4] it was -4.56 log M. Besides, the logIC50 in [5] was -4.36 log M; in assay [6], approximately -3.84 log M; in assay [7] it was approximately -3.76 log M; in assay [8] it was -4.18 log M. For the same molecule, the “% inhibition of RGS4-Gαo” value in assay [2] came to 80%. For the same molecule, the IC50 in [4] is 28 µM; in [5], 43 µM; in assay [6], approximately 145 µM; in assay [7] it was approximately 175 µM; in assay [8], 66 µM.
Consider B4, for which the “% inhibition of RGS4-Gαo” value in assay [2] was 27%.
With B5, in assay [2], the “% inhibition of RGS4-Gαo” value was found to be 19%.
As for B6, the “% inhibition of RGS4-Gαo” value in [2] was determined as 23%.
B7 displayed a Kd in assay [1] of 0.0116 µM.
Still for that read-out and setting: as for B8, the figure is 0.0079 µM; as for B9, 0.0122 µM.
B10 had a Kd in assay [1] of 0.00817 µM.
